“Also recorded” adds a separate entry of the source. Where two headings read alike, the source gives them in different places.
B1: hrDNase: Human recombinant DNase (Roche, Switzerland), DNA-degrading enzyme (protein, UniProt P24855 23-282, looked up)
Deoxyribonuclease-1: LKIAAFNIQTFGETKMSNATLVSYIVQILSRYDIALVQEVRDSHLTAVGKLLDNLNQDAPDTYHYVVSEPLGRNSYKERYLFVYRPDQVSAVDSYYYDDGCEPCGNDTFNREPAIVRFFSRFTEVREFAIVPLHAAPGDAVAEIDALYDVYLDVQEKWGLEDVMLMGDFNAGCSYVRPSQWSSIRLWTSPTFQWLIPDSADTTATPTHCAYDRIVVAGMLLRGAVVPDSALPFNFQAAYGLSDQLAQAISDHYPVEVMLK
B2: rIL-1β: Murine recombinant IL-1β (401-ML, R&D systems) (protein, UniProt P10749 118-269, looked up)
Interleukin-1 beta: VPIRQLHYRLRDEQQKSLVLSDPYELKALHLNGQNINQQVIFSMSFVQGEPSNDKIPVALGLKGKNLYLSCVMKDGTPTLQLESVDPKQYPKKKMEKRFVFNKIEVKSKVEFESAEFPNWYISTSQAEHKPVFLGNNSGQDIIDFTMESVSS

What was measured:
[1] = test system: cf-dsDNA; experiment: Cell-free dsDNA quantification in serum/plasma after stroke; type: in vivo, mice; conditions: hrDNase 1000 U vs vehicle, 6 h after stroke or sham surgery
Source text: (§1) Mice were anaesthetized with isoflurane delivered in a mixture of 30% O2 and 70% N2O. An incision was made between the ear and the eye in order to expose the temporal bone. Mice were placed in supine position, and a laser Doppler probe was affixed to the skull above the middle cerebral artery (MCA) territory. The common carotid artery and left external carotid artery were exposed via midline incision and further isolated and ligated. […] Lack of brain ischemia as quantified post-mortem by histological analysis. […]
Cell-free nucleic acids (RNA, single strand (ss) DNA and double strand (ds) DNA) levels in the plasma of mice and human patients was assessed with a Qubit 2.0 fluorometer (Invitrogen) using specific fluorescent dyes which bind either ssDNA (ssDNA Assay Kit, Thermo Fisher Scientific) or dsDNA (HS dsDNA Assay kit, Thermo Fisher Scientific). […]

[2] = test system: splenic CD3^+ T cells; experiment: Splenic T cell counts by FACS after experimental stroke; type: in vivo, mice; conditions: hrDNase 1000 U 1 hour after surgery vs vehicle; experimental stroke; normalized to sham
Source text: (§2) Mice were anaesthetized with isoflurane delivered in a mixture of 30% O2 and 70% N2O. An incision was made between the ear and the eye in order to expose the temporal bone. Mice were placed in supine position, and a laser Doppler probe was affixed to the skull above the middle cerebral artery (MCA) territory. The common carotid artery and left external carotid artery were exposed via midline incision and further isolated and ligated. A 2-mm silicon-coated filament (Doccol) was inserted into the internal carotid artery, advanced gently to the MCA until resistance was felt, and occlusion was confirmed by a corresponding decrease in blood flow (i.e., a decrease in the laser Doppler flow signal by 80%. After 60 minutes of occlusion, the animals were re-anesthetized, and the filament was removed. After recovery, the mice were kept in their home cage with ad libitum access to water and food. Sham-operated mice received the same surgical procedure, but the filament was […] in lieu of being advanced to the MCA. Body temperature was maintained at 37° C. throughout surgery in all mice via feedback-controlled heating pad. The overall mortality rate of animals subjected to MCA occlusion was approximately 20%. All animals in the sham group survived the procedure. Exclusion criteria: 1. Insufficient MCA occlusion (a reduction in blood flow to […] of the baseline value). 2. Death during the surgery. 3. Lack of brain ischemia as quantified post-mortem by histological analysis.
Anti-IL1β: Mice received two injections of antagonizing anti-IL-1β in sterile saline (clone: B122, InVivoMab, BioXcell, US), 1 hour prior to and 1 hour after surgery. Anti-IL-1β or the corresponding IgG control (Armenian hamster IgG, InVivoMab, BioXcell, US) was injected i.p. at a dose of 4 mg kg^−1 body weight in a final volume of 200 μl.
Anti-FasL: Mice received two injections of antagonizing anti-FasL in sterile saline (clone: MFL3, InVivoMab, BioXcell, US), 1 hour prior to and 1 hour after surgery. […]

[3] = test system: caspase-1 activity in splenic CD11b^+ monocytes; experiment: FAM FLICA flow cytometry of caspase-1 activity (inflammasome activation) in splenic monocytes after stroke; type: in vivo, mice; conditions: hrDNase 1000 U 1 hour after surgery vs vehicle; experimental stroke; splenic monocytes
Source text: as §2
Human recombinant DNase (hrDNase): 1000 U of human recombinant DNase (Roche, Switzerland) dissolved in incubation 1× buffer (40 mM Tris-HCl, 10 mM NaCl, 6 mM MgCl2, 1 mM CaCl2, pH 7.9, diluted in PBS, Roche) was injected i.v. in the tail vein 1 hour after surgery in a final volume of 100 μl. The control group was administered vehicle injections at the same volume, route, and timing as experimental animals.
Caspase-8 inhibitor (Z-IETD-FMK) & Caspase-9 inhibitor (Z-LEHD-FMK): The apoptosis inhibitors Z-IETD-FMK and Z-LEHD-FMK (R&D systems, US) in DMSO dissolved in PBS and injected i.p. 30 minutes after surgery. Z-LEHD-FMK was injected at a dose of […] body weight at a final volume of 200 μl. Z-IETD-FMK was injected at a dose of 0.8 mg kg^−1 body weight at a final volume of 100 μl. The control groups were administered vehicle injections at the same volume, route, and timing as experimental animals.
To detect the active forms of caspase-1 in blood, spleen, and bone marrow samples, cell suspensions were stained with the fluorescent inhibitor probe FAM-YVAD-FMK (FAM FLICA, BioRad, Germany) for 30 minutes at 37° C. according to the manufacturer's instructions. After washing, the cells were stained for CD45^+CD3^+ T cells and CD45^+Cd11b^+ monocytes. The flow cytometry data was acquired on a BD FACSVerse (for representative gating strategy, see FIG. 10B).

[4] = test system: splenic B cells; experiment: Splenic B cell counts by FACS after experimental stroke; type: in vivo, mice; conditions: hrDNase 1000 U vs control; 18 h after stroke; normalized to sham
Source text: as §1
(§3) The anti-mouse antibodies listed below (see Table 1) were used for surface marker staining of CD45^+ leukocytes, CD45^+CD11b^+ monocytes (+FasL^+ expression), CD3^+ T cells, CD3^+CD4^+ Thelper cells, CD3^+CD8^+ Tcytotox cells and CD19^+ B cells (for representative gating strategy, see FIG. 10A). […] Flow cytometric data was acquired using a BD FACSverse flow cytometer (BD Biosciences) and analyzed using FlowJo software (Treestar).

[5] = test system: FasL on BMDMs; experiment: BMDMs stimulated with post-stroke serum (±hrDNase), FasL expression by FACS; type: cell-based, mice; conditions: BMDMs stimulated 10 minutes with post-stroke serum ±hrDNase; FasL 10 and 60 minutes after
Source text: (§4) Control-treated BMDMs received only FBS-containing culture media. […] Stimulation by secreted factors (left), and 2. Cell-cell contact (right).

[6] = test system: FasL on CD11b^+ monocytes; experiment: FasL expression on splenic CD11b+ monocytes by FACS after stroke; type: in vivo, mice; conditions: hrDNase 1000 U after stroke vs control
Source text: as §1, §3

[7] = test system: IL-1β; experiment: IL-1β concentration in post-stroke serum treated ex vivo ±hrDNase; parameters: species or system mice; conditions: ex vivo treatment of post-stroke mouse serum ±hrDNase
Protocol: Total IL-1β and caspase-1 levels from patient plasma samples (diluted 1:10 in sterile PBS) were obtained using commercial assay kits according to the manufacturers instructions (Quantikine ELISA human IL-1β, Quantikine ELISA human caspase-1 R&D systems). Total IL-1β and IL-18 levels from murine plasma samples were measured using the Duoset ELISA IL-1β and the Duoset ELISA IL-18 kit according to the manufacturer's instructions (R&D systems).

[8] = test system: FasL on BMDMs; experiment: BMDMs treated with IL-1a, IL-1b or IL-18: FasL+ expression; type: cell-based, mice; conditions: BMDMs treated with 100 ng of IL-1a, IL-1b or IL-18 for 4 h
[9] = test system: monocytic FasL; experiment: rIL-1β i.p. injection in WT mice: monocytic FasL expression in the spleen by FACS; type: in vivo; conditions: rIL-1β 100 or 1000 ng single i.p. injection, 6 h later
Protocol: (§5) Murine recombinant IL-1β: Recombinant IL-1β (401-ML, R&D systems, US) was diluted in sterile PBS and administered intraperitoneally at a dose of 100 or 1000 ng per mouse in a total volume of 100 μl. The control group was administered vehicle injections at the same volume, route and timing as experimental animals.
(§6) Mice were deeply anaesthetized with ketamine (120 mg/kg) and xylazine (16 mg/kg) and blood was drawn via cardiac puncture in 50 mM EDTA (Sigma-Aldrich). Plasma was isolated by centrifugation at 3,000 g for 10 minutes and stored at −80° C. until further use. The blood pellet was resuspended in DMEM and erythrocytes were lysed using isotonic ammonium chloride buffer. Immediately following cardiac puncture, mice were transcardially perfused with normal saline for dissection of bone marrow and spleen. […]
as §3

[10] = test system: splenic T cells; experiment: rIL-1β i.p. injection in WT mice: T cell death in the spleen by FACS; type: in vivo; conditions: rIL-1β 100 or 1000 ng single i.p. injection, 6 h later
Protocol: as §5, §6, §3

[11] = test system: FasL^+CD11b^+ monocytes (BMDMs); conditions: BMDMs stimulated with rIL-1β in increasing doses, FACS 180 minutes after adding T cells
[12] = test system: T cells; experiment: BMDMs stimulated with rIL-1β, then T cell co-culture: T cell death; type: cell-based, mice; conditions: T cells added to rIL-1β-stimulated BMDMs in fresh medium, FACS 180 minutes later
Protocol: Round-bottom tissue culture-treated 96-well plates were coated with 100 μl of PBS containing a mixture of […] purified NA/LE hamster anti-mouse CD3e (clone: 145-2C11, BD Pharmingen) and […] anti-mouse CD28 (clone: 37.51, Invitrogen), and then incubated overnight at 37° C. with 5% CO2. Spleens (wild type, Casp1^−/−) isolated from mice were homogenized into single splenocyte suspensions by using a 40 μm cell strainer followed by erythrolysis as described above. T cells were purified from splenocytes using a negative selection kit (MagniSort, Thermo Fisher) according to the manufacturer's instructions. Purity was reliably ≥90% as assessed by flow cytometry.
as §4

Molecule | serum dsDNA (cf-dsDNA) concentration [1] | serum dsDNA (cf-dsDNA) concentration ([1]; listed as human recombinant DNAse) | splenic T cell counts / T cell survival [2] | monocyte inflammasome activation (caspase-1 probe FAM-FLICA) [3] | splenic B cell survival [4] | FasL upregulation on serum-stimulated monocytes (BMDMs) [5] | FasL expression on monocytes / FasL+ myeloid cell population [6] | IL-1β concentration of post-stroke serum [7] | IL-1β concentration of post-stroke serum ([7]; listed as hrDNAse) | FasL+ expression normalized to untreated control [8] | monocytic FasL expression in the spleen [9] | monocytic FasL expression in the spleen ([9]; listed as recombinant IL-1β) | T cell death in the spleen ([10]; listed as rIL-1b) | T cell death in the spleen ([10]; listed as recombinant IL-1β) | ratio of FasL+CD11b+ monocytes / FasL expression [11] | ratio of FasL+CD11b+ monocytes / FasL expression ([11]; listed as recombinant IL-1β) | T cell death [12] | T cell death ([12]; listed as recombinant IL-1β)
B1 | reduction of cf-dsDNA blood concentrations; also recorded: decrease cf-dsDNA concentration in plasma; also recorded: decrease of serum dsDNA concentration in mice receiving hrDNase treatment after stroke to levels of sham-operated mice | efficient degradation of cf-dsDNA | improved T cell survival after experimental stroke; also recorded: increased splenic T cell counts | substantially reduced inflammasome activation in splenic monocytes; also recorded: decrease cf-dsDNA concentration in plasma and inflammasome activation in monocytes; also recorded: significantly reduced monocyte inflammasome activation | improved B cell survival after experimental stroke | completely prevented the FasL upregulation on serum-stimulated monocytes | prevented the expansion of FasL+myeloid cell population; also recorded: reduced FasL expression on monocytes | IL-1β concentrations did not differ between the two stroke serum groups | did not affect the serum concentration of IL-1β |  |  |  |  |  |  |  |  | 
B2 |  |  |  |  |  |  |  |  |  | FasL upregulation on myeloid cells was predominantly induced by IL-1β | dose-dependent increase in associated monocytic FasL expression in the spleen | dose-dependently induced T cell death and FasL upregulation on myeloid cells | dose-dependent increase in T cell death in the spleen | dose-dependently induced T cell death and FasL upregulation on myeloid cells | increased the ratio of FasL^+CD11b^+ monocytes | increased FasL expression and T cell death but to a lesser degree than induced by the serum of stroke mice | increased T cell death | increased FasL expression and T cell death but to a lesser degree than induced by the serum of stroke mice
